Laboratory results: EP4670742A1, “ANTI-CD79B ANTIBODY DRUG CONJUGATES” (priority 2024, dated 2025)

Columns and labels:
[1] = target: T1, Human CD79b (AA 29-159)-6-His (human, UniProt P40259 29-159); assay: kinetic binding assay, method not named; recombinant human CD79b (29-159)-6-His
T1 construct: range 29-159; No linker between CD79b and the tag is stated
T1 sequence: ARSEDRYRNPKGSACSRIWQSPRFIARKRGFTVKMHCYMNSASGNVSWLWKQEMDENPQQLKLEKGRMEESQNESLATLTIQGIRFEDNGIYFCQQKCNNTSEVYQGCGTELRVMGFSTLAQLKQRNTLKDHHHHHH

[2] = test system: DLBCL GCB CDX (OCI Ly19) Tumors; assay: In vivo growth inhibition of xenografted tumors
Source text: Based on an endpoint of 1000 mm3.

[3] = target: T2, Human CD79b (AA 29-159)-6-His (Homo sapiens, UniProt P40259); assay: Binding affinity to recombinant human CD79b (ka, kd, KD)
T2 construct: 6-His (C)
T2 sequence (P40259 29-159): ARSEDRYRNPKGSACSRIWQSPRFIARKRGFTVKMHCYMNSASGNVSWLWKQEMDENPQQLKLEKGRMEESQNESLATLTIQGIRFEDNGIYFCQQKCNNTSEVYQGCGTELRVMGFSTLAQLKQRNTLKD
Source text: The binding ligand used in the assay was recombinant human CD79b having the amino acid sequence of Ala29-Asp159 of human CD79b, which was fused with a 6-His tag at the C terminus. Table 3 provides the measured association rate (ka), dissociation rate (kd), and equilibrium dissociation constant (KD). Table 3: Binding Affinity

Polatuzumab vedotin-piiq (antibody)
Kd [1]: 5 nM | koff [1]: 0.0087 s⁻¹ | kon [1]: 1.7e+07 M⁻¹ s⁻¹

Polatuzumab vedotin-piiq
tumor growth inhibition and tumor growth delay ([2]; FIG. 2, compared to vehicle controls, all dose levels tested): statistically significant | CR (%) ([2]; dose 3x, control Vehicle): No CRs | PR (%) ([2]; dose 3x, control Vehicle): 0% | TR (%) ([2]; dose 3x, control Vehicle): 0% | TGD (%) ([2]; dose 3x, control Vehicle, end of study): 90% | CR (%) ([2]; dose 3x, control Vehicle, listed as polatuzumab vedotin-piiq): 0% | TGI (%) ([2]; dose 3x, single bolus intraperitoneally on day zero, control Vehicle, day 10 post dosing): 84% | ka ([3]; association rate): 1.7e+07 M⁻¹ s⁻¹ | kd ([3]; dissociation rate): 0.0087 s⁻¹ | Kd ([3]; equilibrium dissociation constant): 5 nM

B1: ADC-1 (antibody, human IgG1, kappa, V domains shown)
VH: EVQLVESGGGLVQPGGSLRLPCAASGFTFYNYWITWIRQAPGKGLEWVANINQAGSEKSYLDAVKGRFTISRDNAKNSVYLQMNSLRVEDTAVYYCAGGFRAFDIWGQGTMVTVSS
VL: DFVLTQSPLSLSVTPGEPASISCRSSQSLLHSSGESYLDWFLQRPGQSPQVLIYLGSHRASGAPDRFSGSGSGTDFTLKISRVEAEDVGVYYCMQALQTPLTFGGGTRVEIKR
modifications: Top1i linker drug LD1 (formula III) linked via sulfhydryl groups of cysteine residues; n is 6 for the whole antibody (DAR = 6.05); conjugated positions and split between the chains not stated
notes: Antibody drug conjugate of Ab1 (IgG1, human kappa); also called anti-CD79b Top1i ADC; anti-CD79b ADC of formula (IV) with Ab1, n is 6
Kd [1]: 4 nM | koff [1]: 0.00068 s⁻¹ | kon [1]: 170000 M⁻¹ s⁻¹
